{"source": "patent US20220089647A1", "about": "(FUJIFILM, published 2022)", "binders": {"B1": {"name": "Cyclic peptide 73 (peptide)", "peptide": "KKKGXIPRGDXFRXA", "modifications": "not fully specified; KKKG-(Hcy)-IPRGD-(HmS)-FR(Dab(acetyl))A; HmS = homoserine; thioether bond Hcy-Dab(acetyl)"}, "B2": {"name": "Cyclic peptide 49 (peptide)", "peptide": "KKK[hCys]EPRGDNYR[Dab(acetyl)″]-NH2", "modifications": "thioether 4-13; N-terminus assumed", "SMILES": "N=C(N)NCCC[C@@H]1NC(=O)[C@H](Cc2ccc(O)cc2)NC(=O)[C@H](CC(N)=O)NC(=O)[C@H](CC(=O)O)NC(=O)CNC(=O)[C@H](CCCNC(=N)N)NC(=O)[C@@H]2CCCN2C(=O)[C@H](CCC(=O)O)NC(=O)[C@@H](NC(=O)[C@H](CCCCN)NC(=O)[C@H](CCCCN)NC(=O)[C@@H](N)CCCCN)CCSCC(=O)NCC[C@@H](C(N)=O)NC1=O"}, "B3": {"name": "Cyclic peptide 8 (peptide)", "peptide": "KKKGXPRGDNFRXA", "modifications": "not fully specified; KKKG-(Hcy)-PRGDNFR(Dab(acetyl))A; thioether bond Hcy-Dab(acetyl)"}}, "note": "Starred links: 1 amine or outer side, 2 acyl side, 3 side chain; linkers in the order of their positions; H or OH if unused. Positions of bridges follow the written chain, without caps; N, C: chain ends. Non-standard residues stand in square brackets, D forms with d. Primed or numbered codes have the meaning given here. No end group written: not given here. Dab(acetyl)″ = 2-amino-4-(acetylamino)butanoic acid, acetyl CH3 carbon bonded to the S of Hcy (S-CH2-C(=O)-NH-), O=C(C[*:3])NCC[C@H](N[*:1])C(=O)[*:2]; Dab(acetyl) = 2-amino-4-acetylamino-butanoic acid residue (N-γ-acetyl-diaminobutyric acid), CC(=O)NCC[C@H](N[*:1])C(=O)[*:2]; Dap(acetyl) = 2-amino-3-acetylamino-propanoic acid residue, CC(=O)NC[C@H](N[*:1])C(=O)[*:2]; COCH2 = acetyl group that carries the bridge; hCys = N[C@@H](CCS)C(=O)O; Dab = NCC[C@H](N)C(=O)O; Dap = NC[C@H](N)C(=O)O"}
{"biological_target": "T1, human integrin αvβ5 (human, UniProt P06756 31-992; P18084 24-719, limits assumed)", "T1 construct": "Heterodimer flowed as analyte at 30, 100, 300 and 1,000 nM in HEPES buffer with 5 mM MgCl2", "T1 sequence (P06756 31-992 limits assumed, chain 1 of 2)": "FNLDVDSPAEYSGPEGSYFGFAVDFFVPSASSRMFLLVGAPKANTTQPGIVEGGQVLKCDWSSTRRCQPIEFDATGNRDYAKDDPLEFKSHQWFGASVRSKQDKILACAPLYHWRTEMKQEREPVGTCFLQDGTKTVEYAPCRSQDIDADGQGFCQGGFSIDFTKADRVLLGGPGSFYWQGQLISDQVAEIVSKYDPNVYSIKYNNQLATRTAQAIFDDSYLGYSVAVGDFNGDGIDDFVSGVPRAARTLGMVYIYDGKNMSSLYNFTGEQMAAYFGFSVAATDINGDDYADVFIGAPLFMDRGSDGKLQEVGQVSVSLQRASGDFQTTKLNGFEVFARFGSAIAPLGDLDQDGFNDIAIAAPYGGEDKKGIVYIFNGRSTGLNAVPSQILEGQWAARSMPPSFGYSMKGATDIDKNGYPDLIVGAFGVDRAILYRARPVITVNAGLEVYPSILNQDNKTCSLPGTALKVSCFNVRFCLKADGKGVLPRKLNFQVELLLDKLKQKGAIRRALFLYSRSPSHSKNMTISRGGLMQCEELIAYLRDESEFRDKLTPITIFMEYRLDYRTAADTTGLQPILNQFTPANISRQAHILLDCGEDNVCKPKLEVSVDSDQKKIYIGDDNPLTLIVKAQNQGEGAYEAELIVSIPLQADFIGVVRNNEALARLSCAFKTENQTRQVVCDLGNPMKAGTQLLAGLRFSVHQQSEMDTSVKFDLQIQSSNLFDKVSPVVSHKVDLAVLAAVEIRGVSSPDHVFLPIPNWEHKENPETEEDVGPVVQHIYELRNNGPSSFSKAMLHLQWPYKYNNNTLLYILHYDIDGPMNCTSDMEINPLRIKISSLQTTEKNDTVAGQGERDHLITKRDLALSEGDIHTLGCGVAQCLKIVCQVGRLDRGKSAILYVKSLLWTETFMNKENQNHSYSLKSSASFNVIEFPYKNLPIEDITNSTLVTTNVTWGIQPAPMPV", "T1 sequence (P18084 24-719 limits assumed, chain 2 of 2)": "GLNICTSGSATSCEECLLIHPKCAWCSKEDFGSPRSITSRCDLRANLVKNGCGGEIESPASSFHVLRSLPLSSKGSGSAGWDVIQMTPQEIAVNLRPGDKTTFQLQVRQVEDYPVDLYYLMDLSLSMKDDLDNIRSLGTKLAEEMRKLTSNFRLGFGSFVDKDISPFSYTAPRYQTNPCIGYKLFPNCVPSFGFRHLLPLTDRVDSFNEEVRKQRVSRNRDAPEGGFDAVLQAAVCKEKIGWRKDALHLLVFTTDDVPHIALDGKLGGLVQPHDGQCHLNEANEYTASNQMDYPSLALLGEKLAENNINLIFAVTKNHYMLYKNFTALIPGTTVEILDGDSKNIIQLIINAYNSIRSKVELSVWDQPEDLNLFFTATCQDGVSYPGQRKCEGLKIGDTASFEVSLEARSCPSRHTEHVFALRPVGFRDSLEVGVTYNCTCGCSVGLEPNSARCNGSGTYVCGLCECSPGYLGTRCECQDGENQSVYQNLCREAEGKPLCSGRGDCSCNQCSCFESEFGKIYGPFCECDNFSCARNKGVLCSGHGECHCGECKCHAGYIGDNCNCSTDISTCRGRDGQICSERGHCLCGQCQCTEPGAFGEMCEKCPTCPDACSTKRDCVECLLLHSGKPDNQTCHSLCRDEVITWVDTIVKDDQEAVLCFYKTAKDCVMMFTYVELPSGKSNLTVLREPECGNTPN", "experiment": "SPR, Biacore 3000, peptide immobilised; A = KD 50 nM or less", "units": {"dissociation constant (KD)": "nM"}}
{"binder": "KKKA[hCys]TPRGDTFA[Dab(acetyl)] (thioether 5-14)", "note": "[Cyclic peptide 158]", "dissociation constant (KD)": "≤ 50"}
{"binder": "KKKA[hCys]VPRGDTFA[Dab](COCH2) (thioether 5-14)", "note": "[Cyclic peptide 164]", "dissociation constant (KD)": "≤ 50"}
{"binder": "KKKA[hCys]IPRGDSFA[Dab](COCH2) (thioether 5-14)", "note": "[Cyclic peptide 162]", "dissociation constant (KD)": "≤ 50"}
{"binder": "KKK[Dab(acetyl)]VPRGDNFC (thioether 4-12)", "note": "[Cyclic peptide 143]", "dissociation constant (KD)": "≤ 50"}
{"binder": "KKK[hCys]TPRGDTFA[Dab](COCH2)A (thioether 4-13)", "note": "[Cyclic peptide 159]", "dissociation constant (KD)": "≤ 50"}
{"binder": "KKK[hCys]VPRGDTFA[Dab](COCH2)A (thioether 4-13)", "note": "[Cyclic peptide 165]", "dissociation constant (KD)": "≤ 50"}
{"binder": "KKK[hCys]IPRGDSFA[Dab](COCH2)A (thioether 4-13)", "note": "[Cyclic peptide 163]", "dissociation constant (KD)": "≤ 50"}
{"binder": "KKK[Dab(acetyl)]VPRGDTFAC (thioether 4-13)", "note": "[Cyclic peptide 141]", "dissociation constant (KD)": "≤ 50"}
{"binder": "KKKA[Dap](COCH2)EPRGDNYRC (thioether 5-14)", "note": "[Cyclic peptide 166]", "dissociation constant (KD)": "≤ 50"}
{"binder": "KKKA[Dab(acetyl)]VPRGDTFACA (thioether 5-14)", "note": "[Cyclic peptide 142]", "dissociation constant (KD)": "≤ 50"}
{"binder": "KKKA[hCys]TPRGDTFA[Dab](COCH2)A (thioether 5-14)", "note": "[Cyclic peptide 160]", "dissociation constant (KD)": "≤ 50"}
{"binder": "KKK[hCys]DPRGDTFA[Dab(acetyl)] (thioether 4-13)", "note": "[Cyclic peptide 144]", "dissociation constant (KD)": "≤ 50"}
{"binder": "KKK[hCys]VPRGDTFS[Dab(acetyl)] (thioether 4-13)", "note": "[Cyclic peptide 153]", "dissociation constant (KD)": "≤ 50"}
{"binder": "KKK[hCys]TTRGDSFA[Dab(acetyl)] (thioether 4-13)", "note": "[Cyclic peptide 157]", "dissociation constant (KD)": "≤ 50"}
{"binder": "KKK[hCys]VPRGDTFG[Dab(acetyl)] (thioether 4-13)", "note": "[Cyclic peptide 152]", "dissociation constant (KD)": "≤ 50"}
{"binder": "KKK[hCys]YPRGDTFA[Dab(acetyl)] (thioether 4-13)", "note": "[Cyclic peptide 148]", "dissociation constant (KD)": "≤ 50"}
{"binder": "KKK[hCys]VTRGDTFA[Dab(acetyl)] (thioether 4-13)", "note": "[Cyclic peptide 150]", "dissociation constant (KD)": "≤ 50"}
{"binder": "KKK[hCys]VSRGDTFA[Dab(acetyl)] (thioether 4-13)", "note": "[Cyclic peptide 149]", "dissociation constant (KD)": "≤ 50"}
{"binder": "KKK[hCys]TPRGDTFA[Dab(acetyl)] (thioether 4-13)", "note": "[Cyclic peptide 147]", "dissociation constant (KD)": "≤ 50"}
{"binder": "KKK[hCys]LPRGDTFA[Dab(acetyl)] (thioether 4-13)", "note": "[Cyclic peptide 146]", "dissociation constant (KD)": "≤ 50"}
{"binder": "KKK[hCys]VPRGDVFA[Dab(acetyl)] (thioether 4-13)", "note": "[Cyclic peptide 151]", "dissociation constant (KD)": "≤ 50"}
{"binder": "KKK[hCys]TTRGDTFA[Dab(acetyl)] (thioether 4-13)", "note": "[Cyclic peptide 155]", "dissociation constant (KD)": "≤ 50"}
{"binder": "KKK[hCys]EPRGDTFA[Dab(acetyl)] (thioether 4-13)", "note": "[Cyclic peptide 145]", "dissociation constant (KD)": "≤ 50"}
{"biological_target": "T1, human integrin αvβ5", "experiment": "SPR, Biacore 3000, peptide immobilised; B = KD more than 50 nM and 100 nM or less", "procedure": "(§1) However, only for the cyclic peptides 125, 126, and 127, in which the number of lysine residues having an amino group as the immobilizing functional group was zero, the amount of the sample solution to be supplied to the sensor chip was set to 500 μL instead of 20 μL. Further, 70 μL of the mixed aqueous solution of 0.2 M EDC and 0.04 M NHS was added to another flow channel of the same sensor chip without immobilizing the sample, and then blocking treatment and washing treatment were carried out. Hereinafter, the obtained immobilization-treated sensor chip is referred to as an “immobilization-treated sensor chip A”.\n(§2) After adding human integrin αvβ5 for 10 minutes at 25° C., which was diluted to 30 nM using a HEPES buffer solution to which magnesium chloride was added to 5 mM, in each flow channel of the immobilization-treated sensor chip A prepared in (1) above, the same HEPES buffer solution (containing 5 mM magnesium chloride) was allowed to flow as a running buffer for 30 minutes, and measurement was carried out with Biacore 3000. Then, a regeneration treatment of removing human integrin αvβ5 was carried out by allowing a 0.5 M EDTA aqueous solution to flow through each flow channel for 10 minutes. Further, the above-described measurement process consisting of adding integrin for 10 minutes, allowing a running buffer to flow for 30 minutes, carrying out measurement with Biacore 3000, and carrying out regeneration treatment with 0.5 M EDTA aqueous solution was carried out in the same manner for 100 nM human integrin αvβ5, 300 nM human integrin αvβ5, and 1,000 nM human integrin αvβ5. Dissociation constant between the cyclic peptide and human integrin αvβ5 was calculated from the difference between the value measured by Biacore 3000 in the flow channel immobilized with the cyclic peptide and the value measured by Biacore 3000 in the flow channel unimmobilized with the cyclic peptide, in a case where each concentration of human integrin αvβ5 was allowed to flow, and the integrin binding property was evaluated according to the following evaluation standards. It is preferable that the evaluation result satisfies the evaluation standard A, B, or C.", "units": {"dissociation constant (KD)": "nM", "dissociation constant": "nM"}}
{"binder": "KKK[Dap(acetyl)]EPRGDNYR[hCys] (thioether 4-13)", "note": "[Cyclic peptide 46]", "dissociation constant (KD)": "50 to 100"}
{"binder": "KKKA[Dap(acetyl)]EPRGDNYR[hCys]-NH2 (thioether 5-14)", "note": "[Cyclic peptide 53]", "dissociation constant (KD)": "50 to 100"}
{"binder": "KKK[hCys]EPRGDNYR[Dab(acetyl)″] (thioether 4-13)", "note": "[Cyclic peptide 44]", "dissociation constant (KD)": "50 to 100"}
{"binder": "B1", "dissociation constant": "50 to 100"}
{"binder": "B2", "dissociation constant (KD)": "50 to 100"}
{"binder": "KKKG[hCys]IPRGDNF[Dab(acetyl)″]A (thioether 5-13)", "note": "[Cyclic peptide 6]", "dissociation constant (KD)": "50 to 100"}
{"binder": "B3", "dissociation constant (KD)": "50 to 100"}
{"binder": "KKKA[Dap(acetyl)]EPRGDNYR[hCys] (thioether 5-14)", "note": "[Cyclic peptide 47]", "dissociation constant (KD)": "50 to 100"}
{"binder": "KKKA[hCys]EPRGDNYR[Dab(acetyl)″] (thioether 5-14)", "note": "[Cyclic peptide 45]", "dissociation constant (KD)": "50 to 100"}
{"binder": "KKKA[hCys]EPRGDNYR[Dab(acetyl)″]D (thioether 5-14)", "note": "[Cyclic peptide 42]", "dissociation constant (KD)": "50 to 100"}
{"binder": "KKKA[hCys]EPRGDNYR[Dab(acetyl)″]A (thioether 5-14)", "note": "[Cyclic peptide 41]", "dissociation constant (KD)": "50 to 100"}
{"binder": "KKKA[hCys]EPRGDNYR[Dab(acetyl)″]E (thioether 5-14)", "note": "[Cyclic peptide 43]", "dissociation constant (KD)": "50 to 100"}
{"binder": "KKKA[hCys]EPRGDNYR[Dab(acetyl)″]G (thioether 5-14)", "note": "[Cyclic peptide 40]", "dissociation constant (KD)": "50 to 100"}
{"binder": "KKKG[hCys]EPRGDNYR[Dab](COCH2)D (thioether 5-14)", "note": "[Cyclic peptide 37]", "dissociation constant (KD)": "50 to 100"}
{"binder": "KKKA[hCys]EPRGDNYE[Dab](COCH2)D (thioether 5-14)", "note": "[Cyclic peptide 36]", "dissociation constant (KD)": "50 to 100"}
{"binder": "KKKA[hCys]VPRGDNYR[Dab](COCH2)D (thioether 5-14)", "note": "[Cyclic peptide 29]", "dissociation constant (KD)": "50 to 100"}
{"binder": "KKKD[hCys]EPRGDNYR[Dab](COCH2)D (thioether 5-14)", "note": "[Cyclic peptide 38]", "dissociation constant (KD)": "50 to 100"}
{"binder": "KKK[Dap(acetyl)]EPRGDNYR[hCys]-NH2 (thioether 4-13)", "note": "[Cyclic peptide 52]", "dissociation constant (KD)": "50 to 100"}
{"biological_target": "T1, human integrin αvβ5", "experiment": "SPR, Biacore 3000, peptide immobilised; C = KD more than 100 nM and 200 nM or less", "procedure": "as §1, §2", "units": {"dissociation constant (KD)": "nM"}}
{"binder": "KKKA[hCys]EPRGDSYR[Dab](COCH2)D (thioether 5-14)", "note": "[Cyclic peptide 33]", "dissociation constant (KD)": "100 to 200"}
